Experimental data taken from publication PMC6660772, “Structure of KAP1 tripartite motif identifies molecular interfaces required for retroelement silencing” (Proceedings of the National Academy of Sciences of the …, 2019).

B5: KAP1 RBCC (residues 50-413), wild type (domain or fragment, human, UniProt Q13263 50-413, looked up)
chain: SPAGGGAEALELLEHCGVCRERLRPEREPRLLPCLHSACSACLGPAAPAAANSSGDGGAAGDGTVVDCPVCKQQCFSKDIVENYFMRDSGSKAATDAQDANQCCTSCEDNAPATSYCVECSEPLCETCVEAHQRVKYTKDHTVRSTGPAKSRDGERTVYCNVHKHEPLVLFCESCDTLTCRDCQLNAHKDHQYQFLEDAVRNQRKLLASLVKRLGDKHATLQKSTKEVRSSIRQVSDVQKRVQVDVKMAILQIMKELNKRGRVLVNDAQKVTEGQQERLERQHWTMTKIQKHQEHILRFASWALESDNNTALLLSKKLIYFQLHRALKMIVDPVEPHGEMKFQWDLNAWTKSAEAFGKIVAERP
notes: KAP1 (TRIM28), human, UniProt Q13263, residues 50-413 (RING, B-box 1, B-box 2, coiled coil); rows of m3 with m3 give the step in the assay's format; also called KAP1 RBCC motif; KAP1 TRIM; not shown: His6, N-terminal, cleaved
B6: Twin-StrepII-MBP-ZNF93 KRAB (KRAB domain residues 1-71 of ZNF93) (domain or fragment)
chain: not shown
notes: ZNF93, UniProt P35789, KRAB domain residues 1-71; The MBP tag was also required for protein solubility; also called MBP-KRAB; ZNF93 MBP-KRAB; source: E. coli BL21 (DE3), purified (StrepTrap, Superdex 200 SEC); also coexpressed with KAP1 in E. coli and co-purified; not shown: Twin-StrepII, N-terminal, kept; MBP, N-terminal, kept

Key:
[1] = molecular target: the molecule itself; test: SEC-MALS; full-length KAP1 and ZNF93 MBP-KRAB coexpressed in E. coli and co-purified (StrepTrap, SEC); Superose 6 (10/300), 20 mM Hepes pH 8, 0.5 M NaCl, 0.5 mM TCEP, 293 K; total protein 1.2 g/L
[2] = molecular target: B6; test: as above; settings: both partners purified
[3] = molecular target: the molecule itself; test: SEC-MALS; RING-B-box 1 (WT at 33 to 610 µM; B-box 1 mutant); monomer to dimer; Superdex 75 (10/300), 20 mM Hepes pH 8, 0.2 M NaCl, 0.5 mM TCEP, 293 K
[4] = molecular target: the molecule itself; test: SEC-MALS; KAP1 RBCC at low protein concentration (8.7 µM, 0.35 g/L); monomers to dimer; Superdex 200 (10/300), 20 mM Hepes pH 8, 0.5 M NaCl, 0.5 mM TCEP, 293 K
[5] = molecular target: B5; test: SPR; Biacore T200, CM5 chip, MBP-KRAB immobilized (~600 RU), KAP1 RBCC flowed over (1:2 dilution series from 34 µM WT, 35 µM mutant), 20 mM Hepes pH 8.0, 0.5 M NaCl, 0.5 mM TCEP, 20 °C; biphasic kinetic model; settings: both partners purified

B1: full-length KAP1 (residues 1-835) (natural protein, human, UniProt Q13263 1-835, looked up)
chain: MAASAAAASAAAASAASGSPGPGEGSAGGEKRSTAPSAAASASASAAASSPAGGGAEALELLEHCGVCRERLRPEREPRLLPCLHSACSACLGPAAPAAANSSGDGGAAGDGTVVDCPVCKQQCFSKDIVENYFMRDSGSKAATDAQDANQCCTSCEDNAPATSYCVECSEPLCETCVEAHQRVKYTKDHTVRSTGPAKSRDGERTVYCNVHKHEPLVLFCESCDTLTCRDCQLNAHKDHQYQFLEDAVRNQRKLLASLVKRLGDKHATLQKSTKEVRSSIRQVSDVQKRVQVDVKMAILQIMKELNKRGRVLVNDAQKVTEGQQERLERQHWTMTKIQKHQEHILRFASWALESDNNTALLLSKKLIYFQLHRALKMIVDPVEPHGEMKFQWDLNAWTKSAEAFGKIVAERPGTNSTGPAPMAPPRAPGPLSKQGSGSSQPMEVQEGYGFGSGDDPYSSAEPHVSGVKRSRSGEGEVSGLMRKVPRVSLERLDLDLTADSQPPVFKVFPGSTTEDYNLIVIERGAAAAATGQPGTAPAGTPGAPPLAGMAIVKEEETEAAIGAPPTATEGPETKPVLMALAEGPGAEGPRLASPSGSTSSGLEVVAPEGTSAPGGGPGTLDDSATICRVCQKPGDLVMCNQCEFCFHLDCHLPALQDVPGEEWSCSLCHVLPDLKEEDGSLSLDGADSTGVVAKLSPANQRKCERVLLALFCHEPCRPLHQLATDSTFSLDQPGGTLDLTLIRARLQEKLSPPYSSPQEFAQDVGRMFKQFNKLTEDKADVQSIIGLQRFFETRMNEAFGDTKFSAVLVEPPPMSLPGAGLSSQELSGGPGDGP
notes: KAP1 (TRIM28), human, UniProt Q13263, full length, residues 1-835; Purified as T4L-RBCC, that is without removal of the His6 tag; a TEV site (ENLYFQG) lies between tag and protein; also called TRIM28; TIF1β; source: also coexpressed with MBP-KRAB in E. coli and co-purified (StrepTrap, Superose 6 SEC); not shown: His6, N-terminal, kept
binding result [1]: binds
stoichiometry N [2]: 2 KAP1 per KRAB

B2: KAP1 RING-B-box 1 (RB1; residues 50-200) (domain or fragment, human, UniProt Q13263 50-200, looked up)
chain: SPAGGGAEALELLEHCGVCRERLRPEREPRLLPCLHSACSACLGPAAPAAANSSGDGGAAGDGTVVDCPVCKQQCFSKDIVENYFMRDSGSKAATDAQDANQCCTSCEDNAPATSYCVECSEPLCETCVEAHQRVKYTKDHTVRSTGPAKS
notes: KAP1 (TRIM28), human, UniProt Q13263, residues 50-200 (RING and B-box 1); also called RING-B-box 1 fragment; RING-Box-1 fragment; not shown: His6, N-terminal, cleaved
stoichiometry N [3]: 2

B3: KAP1 RBCC V114A/Q123A/F125A/K127A (RING domain mutant) (domain or fragment, human, UniProt Q13263 50-413, looked up)
chain: SPAGGGAEALELLEHCGVCRERLRPEREPRLLPCLHSACSACLGPAAPAAANSSGDGGAAGDGTAVDCPVCKQACASADIVENYFMRDSGSKAATDAQDANQCCTSCEDNAPATSYCVECSEPLCETCVEAHQRVKYTKDHTVRSTGPAKSRDGERTVYCNVHKHEPLVLFCESCDTLTCRDCQLNAHKDHQYQFLEDAVRNQRKLLASLVKRLGDKHATLQKSTKEVRSSIRQVSDVQKRVQVDVKMAILQIMKELNKRGRVLVNDAQKVTEGQQERLERQHWTMTKIQKHQEHILRFASWALESDNNTALLLSKKLIYFQLHRALKMIVDPVEPHGEMKFQWDLNAWTKSAEAFGKIVAERP
notes: KAP1 (TRIM28), human, UniProt Q13263, RBCC residues 50-413 with four mutations in the RING domain; also called RBCC with RING domain mutations; source: E. coli BL21 (DE3), purified; not shown: His6, N-terminal, cleaved
binding result [4]: binds

B4: KAP1 RBCC N235A/A236D/K238A/D239A/F244A/L245A (B-box 2 mutant) (domain or fragment, human, UniProt Q13263 50-413, looked up)
chain: SPAGGGAEALELLEHCGVCRERLRPEREPRLLPCLHSACSACLGPAAPAAANSSGDGGAAGDGTVVDCPVCKQQCFSKDIVENYFMRDSGSKAATDAQDANQCCTSCEDNAPATSYCVECSEPLCETCVEAHQRVKYTKDHTVRSTGPAKSRDGERTVYCNVHKHEPLVLFCESCDTLTCRDCQLADHAAHQYQAAEDAVRNQRKLLASLVKRLGDKHATLQKSTKEVRSSIRQVSDVQKRVQVDVKMAILQIMKELNKRGRVLVNDAQKVTEGQQERLERQHWTMTKIQKHQEHILRFASWALESDNNTALLLSKKLIYFQLHRALKMIVDPVEPHGEMKFQWDLNAWTKSAEAFGKIVAERP
notes: KAP1 (TRIM28), human, UniProt Q13263, RBCC residues 50-413 with six mutations in and next to B-box 2; also called RBCC with the B-box 2 mutations; source: E. coli BL21 (DE3), purified; not shown: His6, N-terminal, cleaved
binding result [4]: binds

B5
stoichiometry N [4]: 2

B6
Kd [5]: 8 ± 2 nM
koff [5]: 0.00027 s⁻¹
kon [5]: 36000 M⁻¹ s⁻¹
